Measurements from article PMC10269531, “NH125 Sensitizes Staphylococcus aureus to Cell Wall-Targeting Antibiotics through the Inhibition of the VraS Sensor Histidine Kinase” (Microbiology Spectrum, 2023).

Columns and labels:
[1] = tested on: Nc1ncnc2c1ncn2[C@@H]1O[C@H](COP(=O)(O)OP(=O)(O)OP(=O)(O)O)[C@@H](O)[C@H]1O; test: PK/LDH-coupled ATPase assay, Michaelis-Menten kinetics (KM of ATP); format: biochemical, Staphylococcus aureus; settings: Mg2+ catalytic domain (CAT) that binds ATP
[2] = target: T1, VraS sensor histidine kinase (GST-VraS) (Staphylococcus aureus, UniProt Q99SZ7); test: PK/LDH-coupled ATPase (autophosphorylation) assay, NADH absorbance at […] nm; Michaelis-Menten inhibition kinetics; format: biochemical
T1 construct: GST-tagged intracellular domain, amino acids 85 to 347 (DHp and CAT)
T1 sequence (Q99SZ7 85-347): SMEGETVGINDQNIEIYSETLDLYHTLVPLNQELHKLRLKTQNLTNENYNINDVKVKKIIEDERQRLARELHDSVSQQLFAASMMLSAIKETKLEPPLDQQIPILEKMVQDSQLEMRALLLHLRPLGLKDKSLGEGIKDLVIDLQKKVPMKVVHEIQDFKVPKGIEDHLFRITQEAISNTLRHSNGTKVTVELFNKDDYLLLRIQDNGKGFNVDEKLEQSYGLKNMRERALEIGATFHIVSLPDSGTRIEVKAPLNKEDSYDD

## VraS sensor histidine kinase (GST-VraS) (Staphylococcus aureus subsp. aureus N315)
[1]
  Km: 6.7 ± 1.6 µM
  Vmax: 0.000108 µmol/min
  kcat: 0.0169 ± 0.0056 s⁻¹
  kcat/Km: 2600 ± 600 M⁻¹ s⁻¹

## CCCCCCCCCCCCCCCC[n+]1ccn(Cc2ccccc2)c1C [NH125]
[2]
  IC50: 41 ± 5 µM
